Measurements: patent publication US20180292408A1

Legend:
[1] = target: β-gal-Core-192 (HCV-241) (hepatitis C virus); assay: sandwich ELISA, C7-50 capture, llama anti-serum detection
[2] = target: β-gal-Core-192 (HCV-241) (hepatitis C virus); assay: sandwich ELISA, C7-50 coated, detected with llama serum and HRP-goat-anti-llama antibody
[3] = target: β-gal-Core-192 (HCV-241) (hepatitis C virus); assay: lateral flow immunoassay, C7-50 labelled with colloidal gold, purified rabbit antibody on the test line

β-gal-Core-192 (HCV-241) (hepatitis C virus), sequence (P00722 2-1024): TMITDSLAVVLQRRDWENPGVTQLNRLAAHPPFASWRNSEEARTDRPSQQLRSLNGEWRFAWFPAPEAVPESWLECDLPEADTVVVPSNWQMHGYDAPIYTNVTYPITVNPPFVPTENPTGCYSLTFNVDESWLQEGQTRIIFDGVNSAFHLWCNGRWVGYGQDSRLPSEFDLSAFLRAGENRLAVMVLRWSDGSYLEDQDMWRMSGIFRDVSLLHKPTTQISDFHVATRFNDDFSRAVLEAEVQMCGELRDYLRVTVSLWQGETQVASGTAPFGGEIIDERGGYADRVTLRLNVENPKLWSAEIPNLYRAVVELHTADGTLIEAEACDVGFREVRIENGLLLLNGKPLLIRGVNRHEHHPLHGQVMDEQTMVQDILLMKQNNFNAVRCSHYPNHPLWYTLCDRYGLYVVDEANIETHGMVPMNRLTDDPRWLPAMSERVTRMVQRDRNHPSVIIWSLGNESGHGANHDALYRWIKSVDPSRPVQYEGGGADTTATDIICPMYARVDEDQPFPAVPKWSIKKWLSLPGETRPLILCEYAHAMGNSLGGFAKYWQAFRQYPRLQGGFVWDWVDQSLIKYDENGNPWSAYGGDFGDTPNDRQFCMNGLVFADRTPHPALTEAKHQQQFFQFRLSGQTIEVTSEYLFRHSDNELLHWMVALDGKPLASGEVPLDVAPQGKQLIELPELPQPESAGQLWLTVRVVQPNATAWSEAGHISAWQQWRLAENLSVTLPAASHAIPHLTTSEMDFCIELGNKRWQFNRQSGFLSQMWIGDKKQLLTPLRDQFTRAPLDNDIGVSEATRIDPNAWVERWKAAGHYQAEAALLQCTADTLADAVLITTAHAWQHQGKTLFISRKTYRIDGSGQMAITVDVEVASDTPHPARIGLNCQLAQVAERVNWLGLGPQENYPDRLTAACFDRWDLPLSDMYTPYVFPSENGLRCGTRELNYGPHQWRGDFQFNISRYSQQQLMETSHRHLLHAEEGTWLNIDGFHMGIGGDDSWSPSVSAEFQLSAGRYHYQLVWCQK

With “mouse monoclonal antibody (clone C7-50), Abcam” the detection limit of the sandwich ELISA [1] was less than 40 ng/mL, the OD450 at 0 ng/ml antigen (background) [2] was 0.181 OD450 and the OD450 at 8 ng/ml antigen [2] was 0.221 OD450. For the same substance, the OD450 at 40 ng/ml antigen [2] was 0.214 OD450, the OD450 at 200 ng/ml antigen [2] was 0.3 OD450 and the OD450 at 1000 ng/ml antigen [2] was 0.494 OD450. The OD450 at 5000 ng/ml antigen [2] was 1.74 OD450, the OD450 at 25000 ng/ml antigen [2] was 2.18 OD450 and the OD450 at 125000 ng/ml antigen [2] was 2.27 OD450. The antigen concentration detected in LFIA [3] was 0.3 ng/µL.
